From article PMC12102759 (2025)

B1: CBL peptide 540-555 (E3 ubiquitin-protein ligase CBL), 16-mer library wild type / YES SH3 (YES1 SH3 domain, residues 90-152) (parent complex)
chain 1: RDLPPPPPPDRPYSVG
chain 2: not shown

Variants of: B1
Assay: proteomic peptide phage display deep mutational scan (ProP-PD DMS): M13 P8 16-mer library selected against immobilised GST-tagged bait for four days (rounds), NGS of the eluted pools per day and pseudo-replica; bait immobilised on MaxiSorp plates (10 µg), library pre-cleared on GST, 2 h binding at 4 °C, five washes; one round per day, days 1-4; value from days 2 and 3

Compared with chain 1 D10V, chain 1 D10K is higher in screen value: 0.000894 average fractional NGS count over selection days 2 and 3 (reads of this peptide / all reads for the bait, averaged over … for the first, 0.00142 average fractional NGS count over selection days 2 and 3 (reads of this peptide / all reads for the bait, averaged over … for the second.

Compared with chain 1 D10T, chain 1 D10E is higher in screen value: 0.00033 average fractional NGS count over selection days 2 and 3 (reads of this peptide / all reads for the bait, averaged over … for the first, 0.0012 average fractional NGS count over selection days 2 and 3 (reads of this peptide / all reads for the bait, averaged over … for the second.

Compared with chain 1 R1H, chain 1 R1Q is lower in screen value: 0.0063 average fractional NGS count over selection days 2 and 3 (reads of this peptide / all reads for the bait, averaged over … for the first, 7.8e-05 average fractional NGS count over selection days 2 and 3 (reads of this peptide / all reads for the bait, averaged over … for the second.

Compared with chain 1 R1N, chain 1 R1M is higher in screen value: 0.00136 average fractional NGS count over selection days 2 and 3 (reads of this peptide / all reads for the bait, averaged over … for the first, 0.00223 average fractional NGS count over selection days 2 and 3 (reads of this peptide / all reads for the bait, averaged over … for the second.

Compared with chain 1 R1I, chain 1 D2N is higher in screen value: 0.00103 average fractional NGS count over selection days 2 and 3 (reads of this peptide / all reads for the bait, averaged over … for the first, 0.00453 average fractional NGS count over selection days 2 and 3 (reads of this peptide / all reads for the bait, averaged over … for the second.

Going from chain 1 D2S to chain 1 D2M, the screen value rises from 0.00111 average fractional NGS count over selection days 2 and 3 (reads of this peptide / all reads for the bait, averaged over … to 0.0201 average fractional NGS count over selection days 2 and 3 (reads of this peptide / all reads for the bait, averaged over ….

First: chain 1 D2G
Second: chain 1 D2E
The screen value of the first is higher: 0.00344 average fractional NGS count over selection days 2 and 3 (reads of this peptide / all reads for the bait, averaged over … for the first, 0.0027 average fractional NGS count over selection days 2 and 3 (reads of this peptide / all reads for the bait, averaged over … for the second.

Going from chain 1 D2P to chain 1 D2V, the screen value falls from 0.00891 average fractional NGS count over selection days 2 and 3 (reads of this peptide / all reads for the bait, averaged over … to 0.00212 average fractional NGS count over selection days 2 and 3 (reads of this peptide / all reads for the bait, averaged over ….

First: chain 1 D2F
Second: chain 1 D2K
The screen value of the first is higher: 0.000357 average fractional NGS count over selection days 2 and 3 (reads of this peptide / all reads for the bait, averaged over … for the first, 0.000177 average fractional NGS count over selection days 2 and 3 (reads of this peptide / all reads for the bait, averaged over … for the second.

Compared with chain 1 D2Y, chain 1 D2A is higher in screen value: 0.00341 average fractional NGS count over selection days 2 and 3 (reads of this peptide / all reads for the bait, averaged over … for the first, 0.00577 average fractional NGS count over selection days 2 and 3 (reads of this peptide / all reads for the bait, averaged over … for the second.

First: chain 1 D2R
Second: chain 1 D2I
The screen value of the first is lower: 0.000105 average fractional NGS count over selection days 2 and 3 (reads of this peptide / all reads for the bait, averaged over … for the first, 0.00123 average fractional NGS count over selection days 2 and 3 (reads of this peptide / all reads for the bait, averaged over … for the second.

Compared with chain 1 P7L, chain 1 P7W is lower in screen value: 0.00235 average fractional NGS count over selection days 2 and 3 (reads of this peptide / all reads for the bait, averaged over … for the first, 0.000156 average fractional NGS count over selection days 2 and 3 (reads of this peptide / all reads for the bait, averaged over … for the second.

First: chain 1 P7D
Second: chain 1 P7N
The screen value of the first is higher: 0.00038 average fractional NGS count over selection days 2 and 3 (reads of this peptide / all reads for the bait, averaged over … for the first, 0.000153 average fractional NGS count over selection days 2 and 3 (reads of this peptide / all reads for the bait, averaged over … for the second.

Compared with chain 1 P7V, chain 1 P7K is lower in screen value: 0.00515 average fractional NGS count over selection days 2 and 3 (reads of this peptide / all reads for the bait, averaged over … for the first, 0.000178 average fractional NGS count over selection days 2 and 3 (reads of this peptide / all reads for the bait, averaged over … for the second.

Compared with chain 1 P7Y, chain 1 P7E is higher in screen value: 0.000167 average fractional NGS count over selection days 2 and 3 (reads of this peptide / all reads for the bait, averaged over … for the first, 0.000775 average fractional NGS count over selection days 2 and 3 (reads of this peptide / all reads for the bait, averaged over … for the second.

Going from chain 1 P7A to chain 1 P7I, the screen value rises from 0.000371 average fractional NGS count over selection days 2 and 3 (reads of this peptide / all reads for the bait, averaged over … to 0.000596 average fractional NGS count over selection days 2 and 3 (reads of this peptide / all reads for the bait, averaged over ….

Compared with chain 1 P7Q, chain 1 P5H is higher in screen value: 0.000262 average fractional NGS count over selection days 2 and 3 (reads of this peptide / all reads for the bait, averaged over … for the first, 0.00214 average fractional NGS count over selection days 2 and 3 (reads of this peptide / all reads for the bait, averaged over … for the second.

Going from chain 1 P5N to chain 1 P5F, the screen value falls from 0.00347 average fractional NGS count over selection days 2 and 3 (reads of this peptide / all reads for the bait, averaged over … to 0.00079 average fractional NGS count over selection days 2 and 3 (reads of this peptide / all reads for the bait, averaged over ….

Going from chain 1 P5G to chain 1 P5T, the screen value falls from 0.00951 average fractional NGS count over selection days 2 and 3 (reads of this peptide / all reads for the bait, averaged over … to 0.00773 average fractional NGS count over selection days 2 and 3 (reads of this peptide / all reads for the bait, averaged over ….

Compared with chain 1 P5S, chain 1 P5L is higher in screen value: 0.00042 average fractional NGS count over selection days 2 and 3 (reads of this peptide / all reads for the bait, averaged over … for the first, 0.00149 average fractional NGS count over selection days 2 and 3 (reads of this peptide / all reads for the bait, averaged over … for the second.

Compared with chain 1 P5V, chain 1 P5I is higher in screen value: 0.0116 average fractional NGS count over selection days 2 and 3 (reads of this peptide / all reads for the bait, averaged over … for the first, 0.0162 average fractional NGS count over selection days 2 and 3 (reads of this peptide / all reads for the bait, averaged over … for the second.

First: chain 1 P5W
Second: chain 1 P5A
The screen value of the first is lower: 0.000217 average fractional NGS count over selection days 2 and 3 (reads of this peptide / all reads for the bait, averaged over … for the first, 0.000329 average fractional NGS count over selection days 2 and 3 (reads of this peptide / all reads for the bait, averaged over … for the second.

First: chain 1 P5Q
Second: chain 1 P5Y
The screen value of the first is lower: 0.00016 average fractional NGS count over selection days 2 and 3 (reads of this peptide / all reads for the bait, averaged over … for the first, 0.000822 average fractional NGS count over selection days 2 and 3 (reads of this peptide / all reads for the bait, averaged over … for the second.

First: chain 1 P5D
Second: chain 1 P8F
The screen value of the first is lower: 0.00109 average fractional NGS count over selection days 2 and 3 (reads of this peptide / all reads for the bait, averaged over … for the first, 0.00526 average fractional NGS count over selection days 2 and 3 (reads of this peptide / all reads for the bait, averaged over … for the second.

First: chain 1 P8N
Second: chain 1 P8A
The screen value of the first is lower: 0.00013 average fractional NGS count over selection days 2 and 3 (reads of this peptide / all reads for the bait, averaged over … for the first, 0.00106 average fractional NGS count over selection days 2 and 3 (reads of this peptide / all reads for the bait, averaged over … for the second.

Compared with chain 1 P8L, chain 1 P8W is higher in screen value: 0.000348 average fractional NGS count over selection days 2 and 3 (reads of this peptide / all reads for the bait, averaged over … for the first, 0.00267 average fractional NGS count over selection days 2 and 3 (reads of this peptide / all reads for the bait, averaged over … for the second.

Compared with chain 1 P8S, chain 1 P8G is lower in screen value: 0.00243 average fractional NGS count over selection days 2 and 3 (reads of this peptide / all reads for the bait, averaged over … for the first, 0.000141 average fractional NGS count over selection days 2 and 3 (reads of this peptide / all reads for the bait, averaged over … for the second.

Going from chain 1 P8I to chain 1 P8K, the screen value rises from 0.000285 average fractional NGS count over selection days 2 and 3 (reads of this peptide / all reads for the bait, averaged over … to 0.000519 average fractional NGS count over selection days 2 and 3 (reads of this peptide / all reads for the bait, averaged over ….

First: chain 1 P8D
Second: chain 1 P6N
The screen value of the first is higher: 0.000795 average fractional NGS count over selection days 2 and 3 (reads of this peptide / all reads for the bait, averaged over … for the first, 0.000163 average fractional NGS count over selection days 2 and 3 (reads of this peptide / all reads for the bait, averaged over … for the second.

First: chain 1 P6V
Second: chain 1 P6K
The screen value of the first is higher: 0.0162 average fractional NGS count over selection days 2 and 3 (reads of this peptide / all reads for the bait, averaged over … for the first, 0.00059 average fractional NGS count over selection days 2 and 3 (reads of this peptide / all reads for the bait, averaged over … for the second.

Compared with chain 1 P6Y, chain 1 P6L is higher in screen value: 0.000164 average fractional NGS count over selection days 2 and 3 (reads of this peptide / all reads for the bait, averaged over … for the first, 0.000189 average fractional NGS count over selection days 2 and 3 (reads of this peptide / all reads for the bait, averaged over … for the second.

Compared with chain 1 P6R, chain 1 S14I is higher in screen value: 0.00111 average fractional NGS count over selection days 2 and 3 (reads of this peptide / all reads for the bait, averaged over … for the first, 0.00339 average fractional NGS count over selection days 2 and 3 (reads of this peptide / all reads for the bait, averaged over … for the second.

Going from chain 1 S14T to chain 1 S14A, the screen value falls from 0.0152 average fractional NGS count over selection days 2 and 3 (reads of this peptide / all reads for the bait, averaged over … to 0.00883 average fractional NGS count over selection days 2 and 3 (reads of this peptide / all reads for the bait, averaged over ….

First: chain 1 S14V
Second: chain 1 S14H
The screen value of the first is lower: 7.3e-05 average fractional NGS count over selection days 2 and 3 (reads of this peptide / all reads for the bait, averaged over … for the first, 0.000385 average fractional NGS count over selection days 2 and 3 (reads of this peptide / all reads for the bait, averaged over … for the second.

First: chain 1 S14P
Second: chain 1 S14L
The screen value of the first is lower: 0.00266 average fractional NGS count over selection days 2 and 3 (reads of this peptide / all reads for the bait, averaged over … for the first, 0.0182 average fractional NGS count over selection days 2 and 3 (reads of this peptide / all reads for the bait, averaged over … for the second.

Compared with chain 1 S14E, chain 1 S14F is lower in screen value: 0.0212 average fractional NGS count over selection days 2 and 3 (reads of this peptide / all reads for the bait, averaged over … for the first, 0.0172 average fractional NGS count over selection days 2 and 3 (reads of this peptide / all reads for the bait, averaged over … for the second.

Going from chain 1 S14Q to chain 1 S14G, the screen value rises from 0.000166 average fractional NGS count over selection days 2 and 3 (reads of this peptide / all reads for the bait, averaged over … to 0.00254 average fractional NGS count over selection days 2 and 3 (reads of this peptide / all reads for the bait, averaged over ….

chain 1 S14Y was tested, and the screen value was 0.00258 average fractional NGS count over selection days 2 and 3 (reads of this peptide / all reads for the bait, averaged over ….
